Laboratory results as given in patent publication US20150344570A1 (published 2015).

T1: FcγRIIa H (FcγRIIa, allotype with His at position 131), extracellular domain with C-terminal His tag (human, UniProt P12318 34-217)
T1 construct: extracellular domain; also called FcgRIIa H; 2aH; not shown: His tag at the C terminus
T1 sequence (looked up): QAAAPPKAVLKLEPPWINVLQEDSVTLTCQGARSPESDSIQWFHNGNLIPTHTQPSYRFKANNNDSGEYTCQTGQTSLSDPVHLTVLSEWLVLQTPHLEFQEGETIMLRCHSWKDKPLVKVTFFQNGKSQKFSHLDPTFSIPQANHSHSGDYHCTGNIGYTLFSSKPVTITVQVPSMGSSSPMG

T2: FcγRIIb, extracellular domain with C-terminal His tag (human, UniProt P31994 43-217)
T2 construct: extracellular domain; also called FcgRIIb; 2b; not shown: His tag at the C terminus
T2 sequence (looked up): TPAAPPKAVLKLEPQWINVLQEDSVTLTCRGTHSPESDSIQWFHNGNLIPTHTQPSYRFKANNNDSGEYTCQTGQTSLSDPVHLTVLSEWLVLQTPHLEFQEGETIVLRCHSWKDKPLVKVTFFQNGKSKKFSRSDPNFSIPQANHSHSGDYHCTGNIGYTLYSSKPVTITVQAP

T3: FcγRIIa H (human FcγRIIa, allotype H131, extracellular domain with C-terminal His tag) (human, UniProt P12318 34-217)
T3 construct: extracellular domain; Soluble extracellular domain expressed in FreeStyle293 cells; used as analyte in Biacore; also called FcgRIIa H; FcγRIIa type H; not shown: His tag attached to the C terminus
T3 sequence (looked up): T1 sequence (looked up)

T4: FcγRIIb extracellular domain with C-terminal His tag (human, UniProt P31994 43-217)
T4 construct: extracellular domain; Soluble receptor used as analyte in Biacore; also called FcgRIIb
T4 sequence (looked up): T2 sequence (looked up)

B1: GpH7-A5/GpH7-B3 variant K326_10E/GpL16-k0 (antibody, human IgG1, kappa)
heavy 1: not shown
heavy 2: not shown
light: DIVMTQSPLSLPVTPGEPASISCQASESLVHSNRNTYLHWYLQKPGQSPQLLIYKVSNRFSGVPDRFSGSGSGTDFTLKISRVEAEDVGVYYCSQNTHVPPTFGQGTKVEIERTVAAPSVFIFPPSDEQLKSGTASVVCLLNNFYPREAKVQWKVDNALQSGNSQESVTEQDSKDSTYSLSSTLTLSKADYEKHKVYACEVTHQGLSSPVTKSFNRGEC
notes: Heterodimerized anti-glypican-3 IgG1; mutation in one H chain only; also called He Ab
B2: GpH7-A5/GpH7-B3 variant N325_06M/GpL16-k0 (antibody, human IgG1, kappa)
heavy 1: not shown
heavy 2: not shown
light: B1 light
notes: as for B1
B3: GpH7-A5/GpH7-B3 variant K326_05P/GpL16-k0 (antibody, human IgG1, kappa)
heavy 1: not shown
heavy 2: not shown
light: B1 light
notes: as for B1
B4: GpH7-B3 variant T335_02A/GpL16-k0 (homodimerized antibody, Ho Ab) (antibody, human IgG1, kappa)
heavy: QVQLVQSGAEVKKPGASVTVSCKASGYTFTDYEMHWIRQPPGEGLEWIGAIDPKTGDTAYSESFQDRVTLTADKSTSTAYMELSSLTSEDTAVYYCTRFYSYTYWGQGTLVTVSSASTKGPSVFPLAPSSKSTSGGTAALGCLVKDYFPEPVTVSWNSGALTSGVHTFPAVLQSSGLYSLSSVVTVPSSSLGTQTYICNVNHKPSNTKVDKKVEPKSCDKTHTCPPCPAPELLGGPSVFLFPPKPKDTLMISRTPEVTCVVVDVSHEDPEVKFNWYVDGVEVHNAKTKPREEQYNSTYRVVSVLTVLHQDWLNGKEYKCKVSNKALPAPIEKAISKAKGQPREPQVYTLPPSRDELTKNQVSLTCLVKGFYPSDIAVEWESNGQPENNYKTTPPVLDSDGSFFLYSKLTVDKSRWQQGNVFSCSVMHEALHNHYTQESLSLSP
light: B1 light
notes: Anti-glypican-3 IgG1 (G1d with K439E); the alteration stands in both H chains; also called T335_02A Ho Ab; T335A in both H chains
B5: GpH7-A5/GpH7-B3 variant T335_02A/GpL16-k0 (heterodimerized antibody, He Ab) (antibody, human IgG1, kappa)
heavy 1: not shown
heavy 2: not shown
light: B1 light
notes: Anti-glypican-3 IgG1 heterodimer (D356K/H435R chain GpH7-A5 with K439E chain GpH7-B3 variant); the alteration stands in one H chain only; EU numbering; also called T335_02A He Ab; T335A in one H chain
B6: GpH7-B3 variant T335_05P/GpL16-k0 (homodimerized antibody, Ho Ab) (antibody, human IgG1, kappa)
heavy: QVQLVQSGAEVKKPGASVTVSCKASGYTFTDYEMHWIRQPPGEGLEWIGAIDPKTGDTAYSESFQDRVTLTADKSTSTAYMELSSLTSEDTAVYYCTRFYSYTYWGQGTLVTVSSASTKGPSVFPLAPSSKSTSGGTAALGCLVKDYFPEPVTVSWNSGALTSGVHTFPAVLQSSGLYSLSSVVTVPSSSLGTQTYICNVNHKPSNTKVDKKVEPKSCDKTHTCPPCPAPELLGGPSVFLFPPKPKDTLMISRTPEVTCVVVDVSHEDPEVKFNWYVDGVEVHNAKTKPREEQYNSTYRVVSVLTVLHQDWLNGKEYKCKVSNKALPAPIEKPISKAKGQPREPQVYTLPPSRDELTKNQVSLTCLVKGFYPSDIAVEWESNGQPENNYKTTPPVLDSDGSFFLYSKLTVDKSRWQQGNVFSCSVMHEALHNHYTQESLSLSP
light: B1 light
notes: Anti-glypican-3 IgG1 (G1d with K439E); the alteration stands in both H chains; EU numbering; also called T335_05P Ho Ab; T335P in both H chains
B7: GpH7-B3 variant T335_09D/GpL16-k0 (homodimerized antibody, Ho Ab) (antibody, human IgG1, kappa)
heavy: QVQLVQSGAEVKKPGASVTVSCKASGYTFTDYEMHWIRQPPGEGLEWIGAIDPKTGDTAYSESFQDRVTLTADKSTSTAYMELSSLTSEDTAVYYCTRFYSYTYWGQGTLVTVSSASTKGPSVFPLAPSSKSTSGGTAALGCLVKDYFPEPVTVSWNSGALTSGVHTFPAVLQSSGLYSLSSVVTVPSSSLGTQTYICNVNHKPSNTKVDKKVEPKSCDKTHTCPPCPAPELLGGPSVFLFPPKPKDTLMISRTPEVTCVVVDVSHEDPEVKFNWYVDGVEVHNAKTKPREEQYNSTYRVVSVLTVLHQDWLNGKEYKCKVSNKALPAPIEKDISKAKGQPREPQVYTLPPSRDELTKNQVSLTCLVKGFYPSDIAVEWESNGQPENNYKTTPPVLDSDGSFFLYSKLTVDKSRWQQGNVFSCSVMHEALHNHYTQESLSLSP
light: B1 light
notes: Anti-glypican-3 IgG1 (G1d with K439E); the alteration stands in both H chains; EU numbering; also called T335_09D Ho Ab; T335D in both H chains
B8: GpH7-B3 variant T335_06M/GpL16-k0 (homodimerized antibody, Ho Ab) (antibody, human IgG1, kappa)
heavy: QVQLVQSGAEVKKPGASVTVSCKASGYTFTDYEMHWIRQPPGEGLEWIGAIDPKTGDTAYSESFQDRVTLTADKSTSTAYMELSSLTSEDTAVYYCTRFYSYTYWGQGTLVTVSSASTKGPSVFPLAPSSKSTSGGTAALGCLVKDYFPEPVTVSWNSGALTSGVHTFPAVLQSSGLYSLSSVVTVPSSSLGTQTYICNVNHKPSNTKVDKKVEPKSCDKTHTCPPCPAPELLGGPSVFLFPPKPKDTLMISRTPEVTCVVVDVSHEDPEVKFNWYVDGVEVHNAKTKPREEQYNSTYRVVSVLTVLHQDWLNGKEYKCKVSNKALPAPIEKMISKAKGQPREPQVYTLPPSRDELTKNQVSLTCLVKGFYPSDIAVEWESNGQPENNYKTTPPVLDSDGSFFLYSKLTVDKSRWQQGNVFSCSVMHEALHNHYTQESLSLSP
light: B1 light
notes: Anti-glypican-3 IgG1 (G1d with K439E); the alteration stands in both H chains; EU numbering; also called T335_06M Ho Ab; T335M in both H chains
B9: GpH7-B3 variant T335_08L/GpL16-k0 (homodimerized antibody, Ho Ab) (antibody, human IgG1, kappa)
heavy: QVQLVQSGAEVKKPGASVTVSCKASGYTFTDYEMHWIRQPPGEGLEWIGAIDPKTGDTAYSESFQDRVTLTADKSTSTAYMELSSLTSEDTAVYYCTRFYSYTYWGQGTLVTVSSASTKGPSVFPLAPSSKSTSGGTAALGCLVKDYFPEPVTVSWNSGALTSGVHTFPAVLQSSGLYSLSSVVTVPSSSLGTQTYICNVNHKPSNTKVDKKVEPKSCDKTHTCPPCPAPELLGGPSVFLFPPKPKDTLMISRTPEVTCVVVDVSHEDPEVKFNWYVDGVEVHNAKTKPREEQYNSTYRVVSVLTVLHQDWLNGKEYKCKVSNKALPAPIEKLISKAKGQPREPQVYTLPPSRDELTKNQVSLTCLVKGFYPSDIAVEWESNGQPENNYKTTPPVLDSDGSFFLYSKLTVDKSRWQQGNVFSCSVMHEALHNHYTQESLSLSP
light: B1 light
notes: Anti-glypican-3 IgG1 (G1d with K439E); the alteration stands in both H chains; EU numbering; also called T335_08L Ho Ab; T335L in both H chains
B10: GpH7-B3 variant Y300_07I/GpL16-k0 (homodimerized antibody, Ho Ab) (antibody, human IgG1, kappa)
heavy: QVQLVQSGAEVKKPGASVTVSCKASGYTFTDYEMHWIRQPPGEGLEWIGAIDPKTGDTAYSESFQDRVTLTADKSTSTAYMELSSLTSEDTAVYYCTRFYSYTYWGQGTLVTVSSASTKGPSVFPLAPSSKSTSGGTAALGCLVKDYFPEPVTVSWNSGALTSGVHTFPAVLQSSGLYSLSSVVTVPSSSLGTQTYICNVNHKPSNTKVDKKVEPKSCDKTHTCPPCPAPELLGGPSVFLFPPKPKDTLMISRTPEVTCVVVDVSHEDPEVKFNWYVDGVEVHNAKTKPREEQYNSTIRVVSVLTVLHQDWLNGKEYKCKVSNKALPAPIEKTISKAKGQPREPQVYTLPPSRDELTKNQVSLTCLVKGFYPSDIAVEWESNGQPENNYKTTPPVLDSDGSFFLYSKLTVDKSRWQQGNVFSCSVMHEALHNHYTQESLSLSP
light: B1 light
notes: Anti-glypican-3 IgG1 (G1d with K439E); the alteration stands in both H chains; EU numbering; also called Y300_07I Ho Ab; Y300I in both H chains
B11: GpH7-B3 variant Y300_08L/GpL16-k0 (homodimerized antibody, Ho Ab) (antibody, human IgG1, kappa)
heavy: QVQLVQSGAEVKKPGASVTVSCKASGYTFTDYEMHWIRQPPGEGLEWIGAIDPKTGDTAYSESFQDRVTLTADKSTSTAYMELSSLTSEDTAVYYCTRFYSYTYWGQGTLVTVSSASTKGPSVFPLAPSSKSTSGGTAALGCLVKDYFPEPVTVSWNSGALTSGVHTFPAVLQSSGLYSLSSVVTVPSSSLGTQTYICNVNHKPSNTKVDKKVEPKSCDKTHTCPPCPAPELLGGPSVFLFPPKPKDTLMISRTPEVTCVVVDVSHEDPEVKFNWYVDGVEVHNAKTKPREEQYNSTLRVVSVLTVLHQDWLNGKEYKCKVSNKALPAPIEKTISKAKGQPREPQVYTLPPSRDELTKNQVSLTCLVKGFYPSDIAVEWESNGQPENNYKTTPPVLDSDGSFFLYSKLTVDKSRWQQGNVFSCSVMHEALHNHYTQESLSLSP
light: B1 light
notes: Anti-glypican-3 IgG1 (G1d with K439E); the alteration stands in both H chains; EU numbering; also called Y300_08L Ho Ab; Y300L in both H chains
B12: GpH7-B3 variant Y300_06M/GpL16-k0 (homodimerized antibody, Ho Ab) (antibody, human IgG1, kappa)
heavy: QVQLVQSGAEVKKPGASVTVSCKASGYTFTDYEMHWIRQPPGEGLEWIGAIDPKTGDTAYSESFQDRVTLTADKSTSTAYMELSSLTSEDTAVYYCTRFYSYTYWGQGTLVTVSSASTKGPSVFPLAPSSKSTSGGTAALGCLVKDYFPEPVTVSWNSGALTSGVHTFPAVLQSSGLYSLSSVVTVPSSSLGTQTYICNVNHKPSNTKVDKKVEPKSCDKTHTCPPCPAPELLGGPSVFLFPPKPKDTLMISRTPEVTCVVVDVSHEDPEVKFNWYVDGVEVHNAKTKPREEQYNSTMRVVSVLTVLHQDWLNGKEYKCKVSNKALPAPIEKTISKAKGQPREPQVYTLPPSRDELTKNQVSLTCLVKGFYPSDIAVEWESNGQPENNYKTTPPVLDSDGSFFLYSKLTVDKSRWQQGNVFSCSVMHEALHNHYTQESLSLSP
light: B1 light
notes: Anti-glypican-3 IgG1 (G1d with K439E); the alteration stands in both H chains; EU numbering; also called Y300_06M Ho Ab; Y300M in both H chains
B13: GpH7-B3 variant T335_04F/GpL16-k0 (homodimerized antibody, Ho Ab) (antibody, human IgG1, kappa)
heavy: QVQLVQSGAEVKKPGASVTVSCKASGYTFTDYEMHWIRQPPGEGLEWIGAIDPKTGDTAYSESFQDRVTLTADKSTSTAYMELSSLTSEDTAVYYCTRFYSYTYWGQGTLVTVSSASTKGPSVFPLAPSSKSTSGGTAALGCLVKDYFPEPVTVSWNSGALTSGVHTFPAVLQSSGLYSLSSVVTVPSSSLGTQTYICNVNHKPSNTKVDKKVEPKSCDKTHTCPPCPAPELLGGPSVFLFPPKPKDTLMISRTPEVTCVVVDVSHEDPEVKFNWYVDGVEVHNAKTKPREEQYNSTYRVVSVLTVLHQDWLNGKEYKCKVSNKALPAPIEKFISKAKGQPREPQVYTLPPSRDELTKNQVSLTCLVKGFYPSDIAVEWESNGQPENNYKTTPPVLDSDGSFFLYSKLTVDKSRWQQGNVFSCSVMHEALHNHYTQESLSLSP
light: B1 light
notes: Anti-glypican-3 IgG1 (G1d with K439E); the alteration stands in both H chains; EU numbering; also called T335_04F Ho Ab; T335F in both H chains
B14: GpH7-A5/GpH7-B3 variant N325_08L/GpL16-k0 (antibody, human IgG1, kappa)
heavy 1: not shown
heavy 2: not shown
light: B1 light
notes: Heterodimerized IgG1, mutation in the GpH7-B3 chain only; also called He Ab
B15: GpH7-A5/GpH7-B3 variant N325_20W/GpL16-k0 (antibody, human IgG1, kappa)
heavy 1: not shown
heavy 2: not shown
light: B1 light
notes: as for B14
B16: GpH7-A5/GpH7-B3 variant P331_03V/GpL16-k0 (antibody, human IgG1, kappa)
heavy 1: not shown
heavy 2: not shown
light: B1 light
notes: as for B14
B17: GpH7-A5/GpH7-B3 variant P331_16H/GpL16-k0 (antibody, human IgG1, kappa)
heavy 1: not shown
heavy 2: not shown
light: B1 light
notes: as for B14
B18: GpH7-A5/GpH7-B3 variant N325_13S/GpL16-k0 (antibody, human IgG1, kappa)
heavy 1: not shown
heavy 2: not shown
light: B1 light
notes: as for B14

biological target: T1, FcγRIIa H (FcγRIIa, allotype with His …); experiment: SPR (Biacore), relative binding vs GpH7-A5/GpH7-B3/GpL16-k0

He/Con_2aH | Binder
102 % of HeCon Ab (=100) | B1
48.2 % of HeCon Ab (=100) | B2
98.8 % of HeCon Ab (=100) | B3

biological target: T2, FcγRIIb, extracellular domain with …; experiment: as above

He/Con_2b | Binder
200 % of HeCon Ab (=100) | B1
217 % of HeCon Ab (=100) | B2
126 % of HeCon Ab (=100) | B3

biological target: T1, FcγRIIa H (FcγRIIa, allotype with His …); experiment: SPR (Biacore); He/Con_2aH divided by He/Con_2b (FcγRIIb)

He_2aH/2b (IIaH/IIb) [ratio] | Binder
0.51 | B1
0.22 | B2
0.79 | B3

biological target: T3, FcγRIIa H (human FcγRIIa, allotype …); experiment: SPR (Biacore T100), antibody captured on antigen-peptide chip, FcγRIIa H as analyte; relative binding
Description: Analysis of interaction between objective antibody and the FcγR was carried out using Biacore T100 (GE Healthcare). HBS-EP+ (GE Healthcare) was used as the running buffer, and the measurement temperature was set to 25° C. Chips produced by immobilizing the antigen peptide by the amine coupling method to a Series S Sencor Chip CM5 (GE Healthcare), or alternatively, chips produced by allowing preliminarily biotinylated antigen peptides to interact with and immobilize onto a Series S Sensor Chip SA (certified) (GE Healthcare) were used. Antibodies of interest were captured onto an antigen peptide-immobilized chip, and allowed to interact to each FcγR diluted with running buffer. To regenerate and repeatedly use the chip, the antibodies captured on the chip were washed off by reacting 10 mM glycine-HCl, pH 1.5.

Ho/Con_2aH | He/Con_2aH | Binder
103 relative binding activity (control homodimerized antibody GpH7-B3/GpL16-k0 = 100) |  | B4
 | 101 relative binding activity (control heterodimerized antibody GpH7-A5/GpH7-B3/GpL16-k0 = 100) | B5
115 relative binding activity (control homodimerized antibody GpH7-B3/GpL16-k0 = 100) |  | B6
110 relative binding activity (control homodimerized antibody GpH7-B3/GpL16-k0 = 100) |  | B7
106 relative binding activity (control homodimerized antibody GpH7-B3/GpL16-k0 = 100) |  | B8
106 relative binding activity (control homodimerized antibody GpH7-B3/GpL16-k0 = 100) |  | B9
122 relative binding activity (control homodimerized antibody GpH7-B3/GpL16-k0 = 100) |  | B10
115 relative binding activity (control homodimerized antibody GpH7-B3/GpL16-k0 = 100) |  | B11
106 relative binding activity (control homodimerized antibody GpH7-B3/GpL16-k0 = 100) |  | B12
104 relative binding activity (control homodimerized antibody GpH7-B3/GpL16-k0 = 100) |  | B13

biological target: T5, FcγRIa extracellular domain with C-terminal His tag (human, UniProt P12314 16-292); experiment: ratio He/Con_1a : He/Con_2b (FcγRIa over FcγRIIb), SPR (Biacore)
T5 construct: extracellular domain; Soluble receptor used as analyte in Biacore; also called FcgRI
T5 sequence (P12314 16-292): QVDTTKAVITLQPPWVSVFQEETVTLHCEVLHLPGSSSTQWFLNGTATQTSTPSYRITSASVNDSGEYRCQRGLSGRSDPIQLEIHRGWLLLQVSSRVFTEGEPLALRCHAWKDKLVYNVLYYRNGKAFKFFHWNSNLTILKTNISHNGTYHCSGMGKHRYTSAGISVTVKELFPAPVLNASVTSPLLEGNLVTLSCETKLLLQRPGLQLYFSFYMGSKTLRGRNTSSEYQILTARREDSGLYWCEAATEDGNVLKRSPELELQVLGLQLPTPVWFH

He_1a/2b (Ia/IIb) | Binder
0.5 | B14
0.56 | B15
0.78 | B16
0.8 | B17
0.55 | B18

biological target: T4, FcγRIIb extracellular domain with …; experiment: SPR (Biacore), antibody captured, FcγR as analyte; binding relative to GpH7-A5/GpH7-B3/GpL16-k0 = 100

He/Con_2b [control = 100] | Binder
197 | B14
169 | B15
119 | B16
116 | B17
177 | B18

biological target: T5, FcγRIa extracellular domain with …; experiment: as above

He/Con_1a [control = 100] | Binder
97.5 | B14
93.8 | B15
92 | B16
92.4 | B17
96.8 | B18
